Measurements: US20250297007A1 (published 2025)
Positions count from the first letter of the chain named.

T1: recombinant protein TCRVB 6-5 (human, biotinylated (captured on a Biotin CAP chip); site not stated)
T1 construct: also called TCRVβ 6-5; TCRβ V6-5*01
T1 TCR beta: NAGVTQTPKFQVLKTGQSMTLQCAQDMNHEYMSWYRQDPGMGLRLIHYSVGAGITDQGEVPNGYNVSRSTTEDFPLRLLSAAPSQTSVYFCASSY

B1: BJM0277 (antibody, V domains shown)
VH: QVQLVQSGAEVKKPGSSVKVSCKASGYSFTTYYIHWVRQAPGQGLEWMGWFFPGSGNIKYNEKFKGRVTITADTSTSTAYMELSSLRSEDTAVYYCAGSYYSYDVLDYWGQGTTVTVSS
VL: DIQMTQSPSFLSASVGDRVTITCKASQNVGINVVWHQQKPGKAPKALIYSSSHRYSGVPSRFSGSGSGTEFTLTISSLQPEDFATYFCQQFKSYPLTFGQGTKLEIKR
B2: A-H.52 (scFv)
scFv: QVQLVQSGAEVKKPGSSVKVSCKASGYSFTLGYIHWVRQAPGQGLEWMGWFFPGSGNIKYNEKFKGRVTITADTSTSTAYMELSSLRSEDTAVYYCAGSYYSYDVLDYWGQGTTVTVSSGGGGSGGGGSGGGGSGGGGSDIQMTQSPSFLSASVGDRVTITCKASQNVGINVVWHQQKPGKAPKALIYSSSHRYSGVPSRFSGSGSGTEFTLTISSLQPEDFATYFCQQFKSYPLTFGQGTKLEIK
notes: Phage clone, stated to be a monovalent scFv with two mutations in CDRH1; also called Antibody A-H.52
B3: A-H.53 (scFv)
scFv: B2 scFv with T30R, G32T
notes: Phage clone; also called Antibody A-H.53
B4: A-H.54 (scFv)
scFv: B2 scFv with T30H, L31N, G32W
notes: Phage clone; also called Antibody A-H.54

Target: T1, recombinant protein TCRVB 6-5
Assay: SPR-type chip assay; TCRVB 6-5 captured on Biotin CAP Series S chip, construct as analyte, 1:1 binding model, 25C
Procedure: TCRVB 6-5 at 5 ug/mL was immobilized on a Biotin CAP Series S Sensor Chip to 60 RU. A-H.52 was diluted to 50 nM and then serially diluted two fold Association was 120 seconds, dissociation was 300 seconds. This assay was run in 1×HBS-EP+ Buffer pH 7.4 and 25C. The data was fit using a 1:1 binding model. A-H.52 is a phage clones and is a monovalent scFv. A-H.52 has two mutations on CDRH1.
(§1) TCRVB 6-5 at 5 ug/mL was immobilized on a Biotin CAP Series S Sensor Chip to 60 RU. A-H.53 was diluted to 50 nM and then serially diluted two fold. Association was 120 seconds, dissociation was 300 seconds. This assay was run in 1×HBS-EP+ Buffer pH 7.4 and 25C. The data was fit using a 1:1 binding model. A-H.53 (phage clone) affinity is in the pM range (Table 17).
as §1, with “A-H.54” for “A-H.53”, “model.” for “model. A-H.53 (phage clone) affinity is in the pM range (Table 17).”
For B1, the Kd was 35 nM.
Binder B2 has a Kd of 1.76 nM.
B3 was tested, and the Kd was 0.165 nM.
B4 showed a Kd of 2.22 nM.
